Binding result and SPR response data for seven molecules are collected here from US20200197498A1 (OHIO STATE INNOVATION FOUNDATION, published 2020).

The labels stand for the following.
B1: PD-1 (92-110) (peptide)
peptide: H-GAISLAPKAQIKESLRAEL-NH2
notes: Free peptide (H2N- at the N-terminus); also called free peptide
B2: PD-1 (73-90) (peptide)
peptide: H-DFHMSVVRARRNDSGTYL-NH2
notes: as for B1
B3: PD-1 (45-64) (peptide)
peptide: H-KLAAFPEDRSQPGQDCRFR-NH2
notes: Free peptide (H2N- at the N-terminus); also called free peptide; 46-64
B4: MVF-HER-2(266-296) (peptide)
peptide: KLLSLIKGVIVHRLEGVEGPSLLHCPALVTYNTDTFESMPNPEGRYTFGASCV
notes: Negative control peptide in SPR

T1 sequence (Q9NZQ7 19-238): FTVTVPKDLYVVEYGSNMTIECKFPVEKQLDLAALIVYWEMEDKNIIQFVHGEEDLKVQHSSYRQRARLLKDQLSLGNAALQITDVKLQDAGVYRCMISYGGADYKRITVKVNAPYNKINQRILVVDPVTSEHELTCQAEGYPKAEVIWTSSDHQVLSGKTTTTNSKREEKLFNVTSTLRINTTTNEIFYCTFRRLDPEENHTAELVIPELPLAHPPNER

This experiment has as its target T1, recombinant hPD-L1 ectodomain (human, UniProt Q9NZQ7 19-238).
T1 construct: extracellular domain; Immobilised on a CM5 chip by amine coupling (2345 RU); also called rhPD-L1; rPD-L1
The experiment in a line: SPR (Biacore T200), rhPD-L1 immobilised on CM5 chip, 1 µM peptide injected. (In general: SPR reads the build-up and loss of mass on a sensor chip optically.)
As to B1, the binding result was “binds”.
With B2, the binding result is listed as “binds”.
The same measure, in the same setting: for Ac-DFHMSVVRARRNDSGTYL-NH2 (also called acetylated peptide) [AC-PD-1 (73-90)] the value was “binds”.
In the case of Ac-KLAAFPEDRSQPGQDCRFR-NH2 (also called acetylated peptide) [AC-PD-1 (45-64)], the binding result is “binds”.
Same read-out and setting: for B3 the value was “binds”; for Ac-GAISLAPKAQIKESLRAEL-NH2 (also called acetylated peptide) [AC-PD-1 (92-110)], “binds”.
For B4, the SPR response is 20 RU.
